Patent publication US20240270846A1 (published 2024)
Positions count from the first letter of the chain named. Names and notes keep the numbering of the source.

B1: CE115HA000 A99F one-arm antibody (antibody, human IgG1, kappa, L234A L235A, N297A, name in Kabat numbering)
heavy: QVQLVESGGGVVQPGRSLRLSCAASGFTFSNAWMHWVRQAPGKGLEWVAQIKAKSNNYATYYAESVKGRFTISRDDSKNSLYLQMNSLKTEDTAVYYCRYVHYGFYYGVDAWGQGTTVTVSSASTKGPSVFPLAPSSKSTSGGTAALGCLVKDYFPEPVTVSWNSGALTSGVHTFPAVLQSSGLYSLSSVVTVPSSSLGTQTYICNVNHKPSNTKVDKKVEPKSCDKTHTCPPCPAPEAAGGPSVFLFPPKPKDTLMISRTPEVTCVVVDVSHEDPEVKFNWYVDGVEVHNAKTKPREEQYASTYRVVSVLTVLHQDWLNGKEYKCKVSNKALPAPIEKTISKAKGQPREPQVYTLPPSRCELTKNQVSLSCAVKGFYPSDIAVEWESNGQPENNYKTTPPVLDSDGSFFLVSKLTVDKSRWQQGNVFSCSVMHEALHNHYTQKSLSLSPDYKDDDDK
chain: EPKSSDKTHTCPPCPAPELLGGPSVFLFPPKPKDTLMISRTPEVTCVVVDVSHEDPEVKFNWYVDGVEVHNAKTKPREEQYNSTYRVVSVLTVLHQDWLNGKEYKCKVSNKALPAPIEKTISKAKGQPREPQVCTLPPSRDELTKNQVSLWCLVKGFYPSDIAVEWESNGQPENNYKTTPPVLDSDGSFFLYSKLTVDKSRWQQGNVFSCSVMHEALHNRYTQKSLSLSP
light: DIVMTQSPLSLPVTPGEPASISCRSSQSLVHSNRNTYLHWYQQKPGQAPRLLIYKVSNRFSGVPDRFSGSGSGTDFTLKISRVEAEDVGVYYCGQGTQVPYTFGQGTKLEIKRTVAAPSVFIFPPSDEQLKSGTASVVCLLNNFYPREAKVQWKVDNALQSGNSQESVTEQDSKDSTYSLSSTLTLSKADYEKHKVYACEVTHQGLSSPVTKSFNRGEC
notes: one-arm antibody
B2: CE115HA000 A99K one-arm antibody (antibody, human IgG1, kappa, L234A L235A, N297A, name in Kabat numbering)
heavy: B1 heavy with F105K
chain: B1 chain
light: B1 light
notes: one-arm antibody
B3: CE115HA000 A99Y one-arm antibody (antibody, human IgG1, kappa, L234A L235A, N297A, name in Kabat numbering)
heavy: B1 heavy with F105Y
chain: B1 chain
light: B1 light
notes: one-arm antibody
B4: CE115HA000 A99S one-arm antibody (antibody, human IgG1, kappa, L234A L235A, N297A, name in Kabat numbering)
heavy: B1 heavy with F105S
chain: B1 chain
light: B1 light
notes: one-arm antibody
B5: CE115HA000 A102P one-arm antibody (antibody, human IgG1, kappa, L234A L235A, N297A, name in Kabat numbering)
heavy: B1 heavy with F105A, A111P
chain: B1 chain
light: B1 light
notes: one-arm antibody
B6: CE115HA000 A102I one-arm antibody (antibody, human IgG1, kappa, L234A L235A, N297A, name in Kabat numbering)
heavy: B1 heavy with F105A, A111I
chain: B1 chain
light: B1 light
notes: one-arm antibody
B7: CE115HA000 A99L one-arm antibody (antibody, human IgG1, kappa, L234A L235A, N297A, name in Kabat numbering)
heavy: B1 heavy with F105L
chain: B1 chain
light: B1 light
notes: one-arm antibody
B8: CE115HA000 A102V one-arm antibody (antibody, human IgG1, kappa, L234A L235A, N297A, name in Kabat numbering)
heavy: B1 heavy with F105A, A111V
chain: B1 chain
light: B1 light
notes: one-arm antibody
B9: CE115HA000 A99Q one-arm antibody (antibody, human IgG1, kappa, L234A L235A, N297A, name in Kabat numbering)
heavy: B1 heavy with F105Q
chain: B1 chain
light: B1 light
notes: one-arm antibody
B10: CE115HA000 A99T one-arm antibody (antibody, human IgG1, kappa, L234A L235A, N297A, name in Kabat numbering)
heavy: B1 heavy with F105T
chain: B1 chain
light: B1 light
notes: one-arm antibody

What follows are binders tested against T1, CD3 epsilon homodimer protein (UniProt P07766 23-126) (assay: SPR (Biacore T200), CD3 epsilon homodimer on CM4 chip, one-arm antibody as analyte; ratio to unaltered CE115HA000;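 further: surface plasmon resonance run at 25 °C with HBS-EP+ as running buffer, CD3 epsilon homodimer attached by amine coupling, antibody passed over as analyte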).
T1 construct: Construct of the homodimer protein is not described; also called CD3 (CD3 epsilon)
T1 sequence (P07766 23-126): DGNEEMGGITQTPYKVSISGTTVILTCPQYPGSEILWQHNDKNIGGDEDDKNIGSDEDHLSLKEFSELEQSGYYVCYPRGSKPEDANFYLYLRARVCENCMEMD

KD ratio (KD value of CE115HA000/KD value of the altered form)	Binder
1.15	B1
1.4	B2
1.25	B3
0.76	B4
3.51	B5
1.29	B6
1	B7
1.27	B8
0.85	B9
0.93	B10
